Consider 40 sequences from the nanobody polyreactivity screen of Harvey et al. (2022).

The series is described as follows: yeast display, Sf9 membrane polyspecificity reagent, FACS + sequencing; frameworks hold sequencing errors. In outline: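 Nanobodies came from a synthetic yeast display library in Saccharomyces cerevisiae BJ5465, induced with galactose for 36–48 hours and stained for 1 hour at 4 °C with 10% biotinylated, detergent-solubilized Sf9 membrane reagent. Cells were enriched on streptavidin microbeads and then FACS-sorted, with low and high (top ~1%) gates set on anti-HA fluorescence for expression and streptavidin fluorescence for reagent binding. Each polyreactivity label reflects the gate a clone came from. Genes were amplified by colony PCR, sequenced by MiSeq 2 × 250 and filtered by CDR length.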
On to “QVQLVESGGGLVQAGGSLRLSCAASGFIYDYAMGWYRQAPGKQREFVARINWSGGSTYYADSVKGRFTISRDNAKNTVYLQMNSLKPEDTAVYYCATSGWAWRTSNPYEYWGQGTQVTVSS”, for which the “polyreactivity (PSR sort gate)” value is given as “low polyreactivity”.

Turning to “QVQLVESGGGIVQAGGSLRLSCAASGRTYPGYAMGWYRQAPGKERELVATITFSDGSTYYADSVKGRFTISRDNAKNTVYLQMNSLKPVDTAVYYCNARRSYFLRYGVNYWGQGTQVTVSS”, the “polyreactivity (PSR sort gate)” value is listed as “low polyreactivity”.

As for “QVQHVESGGGLVQAGGSLRLSCAASGFIFTAYAMGWYRQAPGKERELVAGIRSGSSTYYADSVKGRFTISRDNAMNTVYLQMNSLKPEDTAVYYCNAEKYNFIYAYEYWGQGTQVTVSS”, the “polyreactivity (PSR sort gate)” value is on record as “low polyreactivity”.

Turning to “QVQLVESGGGLVQAGGSLRLSCAASGRTFARNAMGWYRQAPGKERELVAAISSSGGSTYYADSVKGRFTISRDNAKNTVYLQMNSLKPEDTAVYYCARYSSFTYDYWGQGTQVTVSS”, the “polyreactivity (PSR sort gate)” value is “high polyreactivity”.

For “QVQLVESGGGLVQAGGSLRLSCAASGSIFVGYAMGWYRQAPGKEREWVAAIRSGGSTKYADSVKGRFTISRDNAKNTVYLQMNSLKPEDTAVYYCNVEVHPYYWVDNFQRFPVLHNYWGQGTQVTVSS”, the “polyreactivity (PSR sort gate)” value is “low polyreactivity”.

Consider “QVQLVESGGGLVQAGGSLRLSCAASGFIFLYYAMGWYRQAPGKERELVAAITTRGGRTYYADSVKGRFTISRDNAKNTVYLQMNSLKPEDTAVYYCAVQVSWSYYRYGYWGQGTQVTVSS”, for which the “polyreactivity (PSR sort gate)” value was “low polyreactivity”.

Consider “QFQLVESGGGLVQAGGSLRLSCAASGRIFDLNAMGWYRQAPGKERELVAAITWSGDSTYYADSVKGRITISRDNAKNTVYLQLNSLKPEDTAVYYCAAASRTSYSWVDYEFDYWGQGTQVTVSS”, for which the “polyreactivity (PSR sort gate)” value was “low polyreactivity”.

“QVQLVESGGGVLQAGGSLRLSCAASGSTFAFYAMVRYREAPGKVRELVAAISRSGGRTYYADSVKGRFTISRDNAKNTVYLQMNSLIPEDTAVYYCAAPSGITTGPHREYDYWGLGTQVTVSS”: the “polyreactivity (PSR sort gate)” value is reported as “high polyreactivity”.

For “QVQIVESGGGLVQAGGSLRLSCAASGRIFVRNAMGWYRQAPAKERELVADITNGGSTNYADSVKGRFTISRDNEKNTVYLQMNSLKPEDTAVYYCAADSLGVYDGDYWGQGTQVTVSS”, the “polyreactivity (PSR sort gate)” value is reported as “low polyreactivity”.

With “QVQLVESGGGLVQAGGSLRLSCAASGFTLTRNAMGWYRQAPGKERELVAAISWSGGTTYYADSVKGRFTISRDNAKNTVYLQMNSLKPEDTAVYYCAADYTLQRQTSFLDSEFYWGQGTQVTVSS”, the “polyreactivity (PSR sort gate)” value is on record as “high polyreactivity”.

As for “QVQLVESGGGLVQAGGSLRLSCAASGRTFYRNAMGWYRQAPGKERELFATINSGGSTHYADSVKGRFTISRDNAKNTVYLQMTSLKPEDNAVYYCAARSQSYRGSLSYYWGQGTQVTVSS”, the “polyreactivity (PSR sort gate)” value is listed as “high polyreactivity”.

With “QVHLVESGGGLVQAGGSLRLSCAASGFIFDFNTMGWYRQAPGKETEFVAAISGSGGRTYYADSVKGRFTISRDNAKNTVYLQMNSLKPEDTAVYYCAAYKRYYYGYDYWGQGTQVTVSS”, the “polyreactivity (PSR sort gate)” value was “high polyreactivity”.

For “QVQHVESGGGLVQAGGSLRLSCAASGRIFWDNASGWYRQAPGKVSELHAAISDSVVITYFADSVKGRFTISRDTAKYTVYLQMNSLKPEDTAFYYCAAHKRCTVYLSSFWMDYWGQGNQVTVSS”, the “polyreactivity (PSR sort gate)” value was “low polyreactivity”.

As to “QVQLVESGGGLVQAGGSLRLSCAASGRIFNGYTMGWYRQAPGKEREFVATISRSGGSTYYADSVKGRFTISRDNAKNTVYLQMNSLKPEDTAVYYCAKTYPAKWEYDYWGQGTQVTVSS”, the “polyreactivity (PSR sort gate)” value was “low polyreactivity”.

Take “QVQLVESGGGLVQAGGSLRLSCAASGRTFGYYGLGWYRQAPGKERELVASINFSSGSTFYADSVKGRFTISRDNAKNTVYLQMNSLKPEDTAVYYCAARTDVGWYSRYGYWGQGTQVTVSS”: the “polyreactivity (PSR sort gate)” value is “low polyreactivity”.

For the sequence “QVQLVESGAGLVQAGGSLRLSCAASGSTFYGYGMGWYRQAPGKERELVAAITGSGDTTYYADSVKGRFTISRDNAKNTVYLQMNSLKPEDTAVYYCNARWHAEYDYWGQGTQVTVSS”, the “polyreactivity (PSR sort gate)” value was “low polyreactivity”.

On to “QVQLVESGGGLVQAGGSLRLSCAASGVIFWEYAMGWYRQAPGKERELVAAISTSGGSTYYADSVKGRFTISRDNAKNTVYLQMISLKPEDTAVYYCAVDGWDDTYFRQDMDYWGQGTQVTVSS”, for which the “polyreactivity (PSR sort gate)” value is listed as “low polyreactivity”.

For “QVELVASGGGLVQAGGSLRLSCAASGSTFAANAMGWYRQAPGKERELVAAITSGGGSTYYADSVKGRFTISRDNEKITVYLQMNSLKPEDTAVYYCAALQSHGVDYDYWGLGTQVTVSS”, the “polyreactivity (PSR sort gate)” value is “low polyreactivity”.

Consider “QVQLVDSGGGLVQAGGSLRLSCAASGRIFRWNAMGWYRQAPGKERELVAVISSGGSTNYADSVKGRFTISRDNAKNTVYLQMNSLKPEDTAVYYCAKGLIRYSHLDYWGQGTQVTVSS”, for which the “polyreactivity (PSR sort gate)” value is on record as “low polyreactivity”.

Turning to “QVQLVESGGGLVQAGGSLRLSCAASGIIFELYAMGWYRQAPGKERELVAAISISGDSTYYADSVTGRFTISRDTAKNTVYLQMKSLKPEDTAVYYCAKQSYRWPYLVTKYYEYDYWGQGTQVTVSS”, the “polyreactivity (PSR sort gate)” value is “low polyreactivity”.

As to “QVQLVESGGGLVQAGGSLRLSCDDSGRIFGGYGMGWYTQAPGKEGELVAAISARGGSTYYADSVKGRFTISRDNAKNTVYLQMNSLKPEDTEFYYCAAVEASSRGYYDYDYWGQGTQVTVSS”, the “polyreactivity (PSR sort gate)” value is “low polyreactivity”.

Regarding “QVQLVESGGGLVQAGGSLRLSCAASGFTFITNAMGWYRQAPGNERELVASISIGGSTNYADSVKGRFTISRDNAKNTVYLQMNSLKPEDTAVYYCAARVYRRLFLPGRFGRPLGYWGQGTQVTVSS”, the “polyreactivity (PSR sort gate)” value is recorded as “high polyreactivity”.

Regarding “QVQLVESGGGLVQAGGSLRLSFAASGITFGYYDMGWYRQAPGKERELVASISSGGNTNYADSVKGRFTISRDNAKNTVYLQMNSLKPEDTAVYYCNVRYWGFYDYDYWGQGTQVTVSS”, the “polyreactivity (PSR sort gate)” value was “low polyreactivity”.

Turning to “QVQLVESGRGLVQAGGSLRLSCAASGGSIPYYAMGWYRQAPGKERELVAAINYSGGSTYYADSVKGRFTISRDNAKNSVYLQMNSLKPEDTAVDYCAARHRYHRGYGYWGQGTQVTLSS”, the “polyreactivity (PSR sort gate)” value was “high polyreactivity”.

As for “QVQLVESGGGLVQAGGSLRLTCAASGSILIYNAMGWYRQAPGKQRELVADITNGGSTNYADSVKGRFTISRDNAKNTVYLQMHSLKPDDTAVYYCAKDAYYWWGPDYDYWGQGTQVTVSS”, the “polyreactivity (PSR sort gate)” value was “low polyreactivity”.

“QVQLVESGGGLVQAGGSLRLSCAASGFIFDWYTMGWYRQAPGKERELVAAITIGGSTDYADSVKGRFTISRDNAKNTVYLLMNSLKPEDTAVYYCNALWYLSGTWYDYWGQGTQVTVSS”: the “polyreactivity (PSR sort gate)” value was “low polyreactivity”.

Regarding “QDQLVESGGGLVQAGGSLRLSCAASGIIFQYYAMGWYRQAPGKERELVAAISWSGGSTYYADSVKGRFTISRDNAKNTVYLQMNSLKPEDTAVYYCAARSRSYWPYEGDYWGQGTQVTVSS”, the “polyreactivity (PSR sort gate)” value is “low polyreactivity”.

Take “QVQLVESGGGLVQAGGSLRLSCAASGIIFDWYTMGWYRQAPGKERELVAAISWRGGRTYYADSVKGRFTISRDNAKNTVYLQMNSLKPEDTAVYYCAAEAPVQPFYVFNTGIYELDYWGQGTQVTVSS”: the “polyreactivity (PSR sort gate)” value is reported as “low polyreactivity”.

For “QVQLVESGGGLVQAGGSLRLSCAASGFTFYYNAMGWYRQAPGKERELVAGISGRGGTTYYADSVKGRFTISRDNAKNTVYLQMNSLKPEDTAVYYCAARKVRARSKFEYWGQGTQVTVSS”, the “polyreactivity (PSR sort gate)” value is listed as “high polyreactivity”.

As for “QVQLVESGGGLVQAGGSLRLSCAASGIIFDTNDIGWYRLGPGKERELVATITQRGGTTYYADSVKGRFTISRDNATNTVYLQMNSLKPEDTAVYYCDADRRSKYDYWGQGTQVSVSS”, the “polyreactivity (PSR sort gate)” value is reported as “low polyreactivity”.

As for “QVQLVESAGGLVQAGGSLRLSCAASGSIFYTYAMGWYRQAPGKERELVAAISGSGTSTYYADSVKGRFTISRDNAKNTVYLQMNSLKPEDTAVYYCATDGGAAWGRYYWDYGYWGQGTQVTVSS”, the “polyreactivity (PSR sort gate)” value is “low polyreactivity”.

With “QVQLVESGGGLVQAGGSLRLSCAASGRTLVHYAMGWYRQAPGKERELVAAISYSGGRTYYADSVKGRFTISRDNAKNTVYLQMNSLKPEDTAVYYCAAEIVYPAIGGYGYWGQGTQVTVSS”, the “polyreactivity (PSR sort gate)” value was “low polyreactivity”.

For “QVQLVESGGGLVQAGGSLRLSCAASGSTFGPYVMGRYRQAPGKDRELVAAITRSGGRTYYADSVKGRFTISRDNAKNTVYLQMNSLKPEDTAVYYCAAPPSEATSQRYKYNYWGQGTQVTVSS”, the “polyreactivity (PSR sort gate)” value is on record as “high polyreactivity”.

As for “QVQLVESGGGLVQAGGILRLSCAASGFTIYYYAIGWYRQAPGKERELVASITSGGSTYYADSVKGRFTISRDNAKNSVYLQMNSLKPEDTAVYYCAKTRFHYKEGDYWGQGTQVTVSS”, the “polyreactivity (PSR sort gate)” value is given as “low polyreactivity”.

On to “QVQLVESGGGLVPAGGSLRLSCAGSGFIFYKYAMGWYRQAPGKERELVAAITRGGSTNYADSVKGRFTSSRDKAKNTVYLQMNSLKPEDTAVYYCAAGNRYGVRQLYQIVTRYYWGQGTQVTVSS”, for which the “polyreactivity (PSR sort gate)” value is “high polyreactivity”.

Turning to “QVKLVESGGGLVQAGGSLRLSCAASGRTFLRYTMGWYRQAPGKEREFVAAISYDTSSTNYADSVKGRFTISRDNAKNNLYLQMNSLKPEDTAVYYCATGPYYGYDEFDYWGQGTQVTVSS”, the “polyreactivity (PSR sort gate)” value is on record as “low polyreactivity”.

Take “QVQLVESGGGLVQAVGSLRLSCAASGRTFAFYTMGWYRPAHGKERELVAAINWSGTRTYYADSVKGRVTISRDKAKNTVYLQMNSLKPEDTAVYYCNVAFFSLSLRTLGVEYWGQGTQVTVST”: the “polyreactivity (PSR sort gate)” value is “high polyreactivity”.

On to “QVQLVESGGGLVQAGGSLRLSCAASGLTFWLNAMGWYRQAPGKERELVAAIRYSGGGTYADSVKGRFTISRDNAKNTVYLQMNSLKPEDPAVYYCAALYNLGYPQFDYWGQGTQVTVSS”, for which the “polyreactivity (PSR sort gate)” value is given as “low polyreactivity”.

With “QFQLVESGGGLVQAGGSLRISCAASGSTFVLNAMGWYRQAPGKDREWVAAISQSDYSTYYSDSVKGRFTISRDNAKNTVYLQMNSLKPEDTAVYYSAREYAHLSFLSTSSDYWGQGTQVTVSS”, the “polyreactivity (PSR sort gate)” value is reported as “low polyreactivity”.

In the case of “QVQLVESGGGLVQAGGSLRLSCAASGRIFWSYAMGWYRQAPGKEREFVAVITWSGGSTYYADSVKGRFTISRDNAKNTVYLQMNSLKPEDTAVYYCAAGQWWYQVRFDYWGQGTQVTVSS”, the “polyreactivity (PSR sort gate)” value was “low polyreactivity”.
